Measured values reported in PMC7614001.

B1: BMP-9, Q9UK05 (protein)
chain: SAGAGSHCQKTSLRVNFEDIGWDSWIIAPKEYEAYECKGGCFFPLADDVTPTKHAIVQTLVHLKFPTKVGKACCVPTKLSPISVLYKDDMGVPTLKYHYEGMSVAECGCR
B2: BMP-7, P18075 (protein)
chain: STGSKQRSQNRSKTPKNQEALRMANVAENSSSDQRQACKKHELYVSFRDLGWQDWIIAPEGYAAYYCEGECAFPLNSYMNATNHAIVQTLVHFINPETVPKPCCAPTQLNAISVLYFDDSSNVILKKYRNMVVRACGCH

Experiments:
[1] = biological target: T1, ALK2 ECD (Homo sapiens), Q04771; test: BLI; conditions: remark: other sources report otherwise
T1 chain: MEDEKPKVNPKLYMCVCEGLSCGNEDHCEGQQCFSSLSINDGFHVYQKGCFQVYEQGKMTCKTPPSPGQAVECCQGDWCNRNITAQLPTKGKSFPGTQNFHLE

[2] = biological target: T2, ALK3 ECD (Homo sapiens), P36894; test: BLI; conditions: remark: other sources report otherwise
T2 chain: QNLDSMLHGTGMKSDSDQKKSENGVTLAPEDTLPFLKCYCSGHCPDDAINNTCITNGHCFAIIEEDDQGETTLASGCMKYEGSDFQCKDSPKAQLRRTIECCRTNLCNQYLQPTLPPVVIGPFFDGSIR

Binder | Kd [1] | Kd [2]
B1 | 133 nM | 
B2 | 18.4 nM | 19 nM
